Publication PMC12316982 (Nature Communications, 2025)

Target: stabilized neuraminidase protein (sNAp) of A/Vietnam/1203/2004 (VN04, H5N1) (Influenza A virus A/Vietnam/1203/2004 …, UniProt Q6DPL2, stabilised)
Assay: ELISA
Settings: both partners purified

Row | Binder | binding result
1 | NCS.1.3 (human IgG1) (antibody, V domains shown) VH: QVQLQESGPRLVKPSETLSLTCSVSGESISSGGYYWTWIRQHPGKGLEWIGNIFDTGSTDYSPSLKTRLTISIDTSKNQFYLRLTSATAADTAVYYCARVGFSLETDRPYYLGLDVWGQGTTVTVSS VL: DIVMTQSPLTLPVTPGEPASISCRSSQSLLHSNGYTYLDWYLQKPGQSPQLLIYFASNRASGVPDRFSGSGSGTYFTLKISRVEAEDVGVYYCMQAVQSPWTFGQGTKVEIK | binds
2 | NCS.1 (human IgG1) (antibody, V domains shown) VH: QVQLPESGPRLVKPSETLSLTCSVSGESISSGGYYWTWIRQHPGKGLEWIGNIFDTGSTHYSPSLKTRLTISIDTSKNQFYLRLNSATAADTAVYYCARVGYSLETDRPYYFGLDVWGQGTTVTVSS VL: DIVMTQSPLSLPVTPGEPASISCRSSQSLLHSNGYTYLDWYLQKPGQSPQLLIYLASNRASGVPDRFSGSGSGTYFTLKISRVEAEDVGVYYCMQAVQTPWTFGQGTKVEIK | binds
3 | NCS.1.1 (human IgG1) (antibody, V domains shown) VH: QVQLQESGPRLVKPSETLSLTCSVSGESISSGGYYWTWIRQHPGKGLEWIGNIFDTGSTDYSPSLKTRLTISIDTSKNQFYLRLNSATAADTAVYYCARVGFSLETDRPYYLGLDVWGQGTTVTVSS VL: DIVMTQSPLSLPVTPGEPASISCRSSQSLLHSNGYTYLDWYLQKPGQSPQLLISFTSNRASGVPDRFSGSGSGTYFTLKISRVEAEDVGVYYCMQAVQTPWTFGQGTKVEIK | binds
